Here are results for ten molecules from US20220177589A1 (OXFORD UNIVERSITY INNOVATION, published 2022).

The target of assay [1] is full length human BTLA expressed in a Jurkat T cell line (human, UniProt Q7Z6A9 31-289). Description: cell-based or functional assay.
In assay [2] the target is chimeric BTLA of humanised-BTLA mice (human extracellular region, murine transmembrane and signaling … (human; mouse, UniProt Q7TSA3 184-306, limits assumed). Put plainly: cell-based or functional assay.

Positions count from the first letter of the chain named.

Sequence of chimeric BTLA of humanised-BTLA mice (human extracellular region, murine transmembrane and signaling … (Q7TSA3 other isoform, or with tags, fused parts or gaps mutant limits assumed): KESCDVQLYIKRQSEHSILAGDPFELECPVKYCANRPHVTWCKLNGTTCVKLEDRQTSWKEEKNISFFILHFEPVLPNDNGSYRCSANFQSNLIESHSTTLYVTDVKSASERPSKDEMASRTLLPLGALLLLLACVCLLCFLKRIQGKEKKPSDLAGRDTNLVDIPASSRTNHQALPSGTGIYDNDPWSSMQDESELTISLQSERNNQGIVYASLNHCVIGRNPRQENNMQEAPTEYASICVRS

B1: 12F11 (antibody, IgG1, V domains shown)
VH: EVQLQQSGPELVKPGASVKISCKASGYTFTDYYMNWVKQSHGKSLEWIGDINPNNGGTSYNQKFKGKATLTVDKSSSTAYMELRSLTSEDSAVYYCARWRQLRSDYWGQGTTLTVSS
VL: DIQMTQSPASQSASLGESVTITCLASQTIGTWLAWYQQKPGKSPQLLIYAATSLADGVPSRFSGSGSGTKFSFKISSLQAEDFVSYYCQQLYSTPLTFGAGTKLELK
For the molecule B1, the “T cell reporter (NFkB signaling), % inhibition” value (shortened to “T cell reporter … % inhibition”) in assay [1] worked out at 30%. In assay [2], the “AntiCD3/CD28 (CD4 T cell proliferation) repeat 1, % inhibition” value is 5%; the “AntiCD3/CD28 (CD4 T cell proliferation) repeat 2, % inhibition” value was determined as 9%; the “AntiCD3/CD28 (CD69+ CD4 T cells) repeat 1, % inhibition” value worked out at 30%; the “AntiCD3/CD28 (CD69+ CD4 T cells) repeat 2, % inhibition” value is 40%. Also, in assay [2], the “MLR (CD4 T cell proliferation) repeat 1, % inhibition” value was determined as 28% and the “MLR (CD4 T cell proliferation) repeat 2, % inhibition” value is 23%.

B2: 27G9 (antibody, IgG1, V domains shown)
VH: EVQLQQSVAELVRPGASVKLSCTASGFNIKNTYMHWVKQRPEQGLEWIGRIDPANGNTKYAPKFQGKATITADTSSNTAYLQLSSLTSEDTAIYYCALTYYGSSQYYFDYWGQGTTLTVSS
VL: not shown
For B2, the “T cell reporter … % inhibition” value in assay [1] stood at 24%. Further, in assay [2], the “AntiCD3/CD28 (CD4 T cell proliferation) repeat 1, % inhibition” value is 10%; the “AntiCD3/CD28 (CD4 T cell proliferation) repeat 2, % inhibition” value was determined as 13%; the “AntiCD3/CD28 (CD69+ CD4 T cells) repeat 1, % inhibition” value came to 24%; the “AntiCD3/CD28 (CD69+ CD4 T cells) repeat 2, % inhibition” value was 22%. Besides, in assay [2], the “MLR (CD4 T cell proliferation) repeat 1, % inhibition” value was 9% and the “MLR (CD4 T cell proliferation) repeat 2, % inhibition” value was 8%.

B3: 1H6 (antibody, IgG1, V domains shown)
VH: B2 VH with A61D, L81V, Y106H
VL: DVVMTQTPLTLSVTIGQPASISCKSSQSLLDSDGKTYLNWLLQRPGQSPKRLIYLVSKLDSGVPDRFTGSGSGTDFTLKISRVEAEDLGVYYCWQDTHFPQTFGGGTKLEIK
As to B3, the “T cell reporter … % inhibition” value in assay [1] came out at 26%. In addition, in assay [2], the “AntiCD3/CD28 (CD4 T cell proliferation) repeat 1, % inhibition” value amounted to 26%; the “AntiCD3/CD28 (CD4 T cell proliferation) repeat 2, % inhibition” value came to 19%; the “AntiCD3/CD28 (CD69+ CD4 T cells) repeat 1, % inhibition” value amounted to 47%; the “AntiCD3/CD28 (CD69+ CD4 T cells) repeat 2, % inhibition” value amounted to 53%. Further, in assay [2], the “MLR (CD4 T cell proliferation) repeat 1, % inhibition” value came out at 31% and the “MLR (CD4 T cell proliferation) repeat 2, % inhibition” value is 16%.

B4: 26F3 (antibody, IgG1, V domains shown)
VH: B2 VH with H35Y, T99L, Q105Y, Y106D
VL: not shown
For B4, the “T cell reporter … % inhibition” value in assay [1] is 20%. For the same molecule, in assay [2], the “AntiCD3/CD28 (CD4 T cell proliferation) repeat 1, % inhibition” value worked out at 4%; the “AntiCD3/CD28 (CD4 T cell proliferation) repeat 2, % inhibition” value was determined as 0%; the “AntiCD3/CD28 (CD69+ CD4 T cells) repeat 1, % inhibition” value worked out at 19%; the “AntiCD3/CD28 (CD69+ CD4 T cells) repeat 2, % inhibition” value amounted to 17%. For the same molecule, in assay [2], the “MLR (CD4 T cell proliferation) repeat 1, % inhibition” value came to 9% and the “MLR (CD4 T cell proliferation) repeat 2, % inhibition” value was -5%.

B5: 26B1 (antibody, IgG1, V domains shown)
VH: EVQLQQSGPVLVKPGASVKMSCKASGYTFTDYYLNWVKQSHGKSLEWIGLIDPYNGGSSCNQKFKGKATLTVDKSSSTAYMDLNSLTSEDSAVYYCARGNAMDYWGQGTSVTVSS
VL: DIVMTQSHKFMSTSVGDRVSITCKASQDVSTAVAWYQEKPGQSPKLLIYWASTRHTGVPDRFTGSGSGTDYILNISSVQAEDLALYYCQQHYIIPYMFGGGTKLEIK
Regarding B5, in assay [1], the “T cell reporter … % inhibition” value was 29%. For the same molecule, in assay [2], the “AntiCD3/CD28 (CD4 T cell proliferation) repeat 1, % inhibition” value was found to be 11%; the “AntiCD3/CD28 (CD4 T cell proliferation) repeat 2, % inhibition” value worked out at 19%; the “AntiCD3/CD28 (CD69+ CD4 T cells) repeat 1, % inhibition” value is 35%; the “AntiCD3/CD28 (CD69+ CD4 T cells) repeat 2, % inhibition” value was found to be 30%. Also, in assay [2], the “MLR (CD4 T cell proliferation) repeat 1, % inhibition” value was determined as 12% and the “MLR (CD4 T cell proliferation) repeat 2, % inhibition” value was 10%.

B6: 8C4 (antibody, IgG1, V domains shown)
VH: DVQLQESGPGMVKPSQSLSLTCTVTGYSITSGYDWHWIRHFPGNKLEWMGYISYSGSTNYNPSLKSRISITHDTSKNHFFLKLNSVTTEDTATYYCARGTPVVAEDYFDYWGQGTTLTVSS
VL: QAVVTQESALSTSPGETVTLTCRSSTGAVTTSNYANWVQEKPDHLFTGLIGATNNRAPGVPARFSGSLIGDKAALTITGAQTEDEAIYFCALWYSNHLVFGGGTKLTVLG
Consider B6, for which, in assay [1], the “T cell reporter … % inhibition” value was found to be 21%. Besides, in assay [2], the “AntiCD3/CD28 (CD4 T cell proliferation) repeat 1, % inhibition” value came to 12%; the “AntiCD3/CD28 (CD4 T cell proliferation) repeat 2, % inhibition” value was 4%; the “AntiCD3/CD28 (CD69+ CD4 T cells) repeat 1, % inhibition” value stood at 29%; the “AntiCD3/CD28 (CD69+ CD4 T cells) repeat 2, % inhibition” value came out at 29%. For the same molecule, in assay [2], the “MLR (CD4 T cell proliferation) repeat 1, % inhibition” value was 42% and the “MLR (CD4 T cell proliferation) repeat 2, % inhibition” value was -2%.

B7: 7A1 (antibody, IgG1, V domains shown)
VH: QVQLQQSGPELVKPGASVKISCKASGYAFSSSWMNWVKQRPGKGLEWIGRIYPGDGDTNYNGKFKGKATLTADKSSSTAYMQLSSLTSEDSAVYFCARRGYGYLAYWGQGTLVTVSA
VL: DIVMTQSHKFMSTSVGDRVSITCKASQDVSTAVAWYQQKPGQSPKLLIYSASYRYTGVPDRFTGSGSGTDFTFTISSVQAEDLAVYYCQQHYSTPWTFGGGTKLEIK
For the molecule B7, the “T cell reporter … % inhibition” value in assay [1] came out at 20%. In assay [2], the “AntiCD3/CD28 (CD4 T cell proliferation) repeat 1, % inhibition” value was found to be 14%; the “AntiCD3/CD28 (CD4 T cell proliferation) repeat 2, % inhibition” value was 17%; the “AntiCD3/CD28 (CD69+ CD4 T cells) repeat 1, % inhibition” value turned out to be 28%; the “AntiCD3/CD28 (CD69+ CD4 T cells) repeat 2, % inhibition” value turned out to be 38%. In assay [2], the “MLR (CD4 T cell proliferation) repeat 1, % inhibition” value stood at 23% and the “MLR (CD4 T cell proliferation) repeat 2, % inhibition” value was determined as 29%.

B8: 15C6 (antibody, IgG1, V domains shown)
VH: B7 VH
VL: B7 VL with W96Y
Regarding B8, the “T cell reporter … % inhibition” value in assay [1] was 9%. In assay [2], the “AntiCD3/CD28 (CD4 T cell proliferation) repeat 1, % inhibition” value was determined as 2%; the “AntiCD3/CD28 (CD4 T cell proliferation) repeat 2, % inhibition” value is -2%; the “AntiCD3/CD28 (CD69+ CD4 T cells) repeat 1, % inhibition” value came to 12%; the “AntiCD3/CD28 (CD69+ CD4 T cells) repeat 2, % inhibition” value is 19%. For the same molecule, in assay [2], the “MLR (CD4 T cell proliferation) repeat 1, % inhibition” value stood at 19% and the “MLR (CD4 T cell proliferation) repeat 2, % inhibition” value came out at 8%.

B9: 3E8 (antibody, IgG1, V domains shown)
VH: QVQLQQSGAELARPGASVRLSCKASGYTFTSYAIRWVKQRTGQGLEWIGEIYPRSGNTYYNENFKGKATLTADKSSSTAYMELRSLTSEDSAVYFCARSGGASYTMDYWGQGTSVTVSS
VL: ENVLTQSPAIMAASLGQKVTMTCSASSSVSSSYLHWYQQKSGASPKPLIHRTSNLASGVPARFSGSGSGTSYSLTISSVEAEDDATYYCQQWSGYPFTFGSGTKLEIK
Turning to B9, in assay [1], the “T cell reporter … % inhibition” value is 30%. Besides, in assay [2], the “AntiCD3/CD28 (CD4 T cell proliferation) repeat 1, % inhibition” value is 27%; the “AntiCD3/CD28 (CD4 T cell proliferation) repeat 2, % inhibition” value was 35%; the “AntiCD3/CD28 (CD69+ CD4 T cells) repeat 1, % inhibition” value amounted to 52%; the “AntiCD3/CD28 (CD69+ CD4 T cells) repeat 2, % inhibition” value amounted to 64%. For the same molecule, in assay [2], the “MLR (CD4 T cell proliferation) repeat 1, % inhibition” value came to 43% and the “MLR (CD4 T cell proliferation) repeat 2, % inhibition” value came to 35%.

B10: 10B1 (antibody, IgG1, V domains shown)
VH: QVQLQQSGAELARPGASVKLSCKASGYTFTSYGISWVKQRTGQGLEWIGEIYPRSGNTYYNEKFKGKATLTADKSSSTAYMELRSLTSEDSAVYFCARNYGSSYPFAYWGQGTLVTVSA
VL: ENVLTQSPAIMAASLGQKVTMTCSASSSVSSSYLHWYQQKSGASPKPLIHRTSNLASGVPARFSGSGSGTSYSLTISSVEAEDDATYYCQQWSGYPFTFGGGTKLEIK
As for B10, the “T cell reporter … % inhibition” value in assay [1] is 27%. Besides, in assay [2], the “AntiCD3/CD28 (CD4 T cell proliferation) repeat 1, % inhibition” value amounted to 8%; the “AntiCD3/CD28 (CD4 T cell proliferation) repeat 2, % inhibition” value worked out at 14%; the “AntiCD3/CD28 (CD69+ CD4 T cells) repeat 1, % inhibition” value was found to be 24%; the “AntiCD3/CD28 (CD69+ CD4 T cells) repeat 2, % inhibition” value was 36%. In assay [2], the “MLR (CD4 T cell proliferation) repeat 1, % inhibition” value came out at 16% and the “MLR (CD4 T cell proliferation) repeat 2, % inhibition” value was 25%.
